Measured values taken from patent publication US20200148774A1.
Residue numbers refer to the chain shown, from its start.

B1: 38E4v1 (antibody, V domains shown)
VH: EVQLVQSGAEVKKPGASVKVSCKASGFTFTSYYIHWVRQAPGQGLEWIGWIYPENDNTKYNEKFKDRVTITADTSTSTAYLELSSLRSEDTAVYYCARDGYSRYYFDYWGQGTLVTVSS
VL: DIVMTQSPDSLAVSLGERATINCKSSQSLLNSRTRKNYLAWYQQKPGQSPKLLIYWTSTRKSGVPDRFSGSGSGTDFTLTISSLQAEDVAVYYCKQSFILRTFGQGTKVEIK
B2: 40G5c (antibody, V domains shown)
VH: B1 VH with F27Y, S31N, E54G, N55D, D56G, D66G, V68A, I70L, G100S, R103N
VL: B1 VL with S49P, T57A, K61E, K95T

Biological target: hCD3ε 1-27 Fc (human)
Test: SPR (Biacore)

hCD3ε 1-27 Fc (human), sequence (chain, as listed by the source): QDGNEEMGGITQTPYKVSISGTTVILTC

Binder	Kd [nM]
B1	1
B2	13
